T1: CR-Fc (UniProt P13385 31-169)
T1 construct: not shown: Fc part; not described
T1 sequence (looked up): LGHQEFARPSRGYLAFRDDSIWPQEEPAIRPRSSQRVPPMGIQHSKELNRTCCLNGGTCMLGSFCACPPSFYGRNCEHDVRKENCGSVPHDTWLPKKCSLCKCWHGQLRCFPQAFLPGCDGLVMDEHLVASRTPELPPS


Key:
CR-Fc [1] = target: T1, CR-Fc; assay: ELISA, ligand coated on the plate, CR-Fc detected with anti-Fc-alkaline phosphatase
Method: We discovered that Cripto binds directly to Activin B. We coated ELISA plates with purified Activin B, Activin A, TGFβ1, GDNF or BMP2 and incubated with CR-Fc. We then added anti-Fc antibody conjugated to alkaline phosphatase and monitored binding by adding an alkaline phosphatase substrate and developing. We observed that CR-Fc bound to wells containing Activin B, but not to Activin A or the other ligands (FIG. 8). In addition, we pre-incubated CR-Fc with Activin A or B in solution before adding to an Activin B coated plate and observed that only Activin B inhibited binding (FIG. 9).

CR-Fc [2] = target: T1, CR-Fc; assay: Biacore, competition format in solution
LTβR-Fc = target: T2, LTβR-Fc (UniProt P36941 31-227); assay: Biacore, Fc fusion protein immobilized on the chip
T2 construct: Control protein on the Biacore chip; also called LT-beta receptor-Fc; control LTβR-Fc protein; not shown: Fc part; not described
T2 sequence (P36941 31-227): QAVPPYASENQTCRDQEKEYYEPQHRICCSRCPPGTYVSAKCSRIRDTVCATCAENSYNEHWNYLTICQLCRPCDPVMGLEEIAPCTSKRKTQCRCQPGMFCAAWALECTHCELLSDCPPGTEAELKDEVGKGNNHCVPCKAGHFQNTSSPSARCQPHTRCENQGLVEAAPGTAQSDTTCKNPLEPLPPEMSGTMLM
Source text: We also analyzed the Cripto-Activin B interaction using Biacore. We discovered that Activin B directly binds CR-Fc immobilized on a Biacore chip with a high intensity, but not to a control LTβR-Fc protein (FIG. 10). We also observed that Activin A binding to CR-Fc was negligible.

binding result (CR-Fc [1]) | Kd (CR-Fc [2]) [nM] | binding result (LTβR-Fc) | Binder
no binding |  |  | Activin A (ligand, UniProt P08476 311-426, looked up) GLECDGKVNICCKKQFFVSFKDIGWNDWIIAPSGYHANYCEGECPSHIAGTSGSSLSFHSTVINHYRMRGHSPFANLKSCCVPTKLRPMSMLYYDDGQNIIKKDIQNMIVEECGCS
 | ~1 | no binding | Activin B (ligand, UniProt P09529 293-407, looked up) GLECDGRTNLCCRQQFFIDFRLIGWNDWIIAPTGYYGNYCEGSCPAYLAGVPGSASSFHTAVVNQYRMRGLNPGTVNSCCIPTKLSTMSMLYFDDEYNIVKRDVPNMIVEECGCA
no binding |  |  | BMP2 (ligand, UniProt P12643 283-396, looked up) QAKHKQRKRLKSSCKRHPLYVDFSDVGWNDWIVAPPGYHAFYCHGECPFPLADHLNSTNHAIVQTLVNSVNSKIPKACCVPTELSAISMLYLDENEKVVLKNYQDMVVEGCGCR
no binding |  |  | GDNF (ligand, UniProt P39905 78-211, looked up) SPDKQMAVLPRRERNRQAAAANPENSRGKGRRGQRGKNRGCVLTAIHLNVTDLGLGYETKEELIFRYCSGSCDAAETTYDKILKNLSRNRRLVSDKVGQACCRPIAFDDDLSFLDDNLVYHILRKHSAKRCGCI
